Measurements from patent US20250382373A1, “ANTI-EGFR/MET ANTIBODIES AND USES THEREOF” (Biocytogen Pharmaceuticals (Beijing) Co., Ltd., priority 2022, published 2025).
Like-named read-outs stand apart in the source and are kept apart here.

Tests used:
[1] = biological target: His-tagged monkey MET (monkey); test: SPR (Biacore 8K), Protein A chip
[2] = biological target: human MET on SNU-5 cells (human) (UniProt P08581); test: flow cytometry on SNU-5 cells (evaluated as No binding)
[3] = biological target: monkey MET on fasMET-NIH3T3 cells (monkey (Macaca fascicularis)); test: flow cytometry on fasMET-NIH3T3 cells (evaluated as No binding)
monkey MET on fasMET-NIH3T3 cells (monkey (Macaca fascicularis)), sequence (chain, as listed by the source limits assumed): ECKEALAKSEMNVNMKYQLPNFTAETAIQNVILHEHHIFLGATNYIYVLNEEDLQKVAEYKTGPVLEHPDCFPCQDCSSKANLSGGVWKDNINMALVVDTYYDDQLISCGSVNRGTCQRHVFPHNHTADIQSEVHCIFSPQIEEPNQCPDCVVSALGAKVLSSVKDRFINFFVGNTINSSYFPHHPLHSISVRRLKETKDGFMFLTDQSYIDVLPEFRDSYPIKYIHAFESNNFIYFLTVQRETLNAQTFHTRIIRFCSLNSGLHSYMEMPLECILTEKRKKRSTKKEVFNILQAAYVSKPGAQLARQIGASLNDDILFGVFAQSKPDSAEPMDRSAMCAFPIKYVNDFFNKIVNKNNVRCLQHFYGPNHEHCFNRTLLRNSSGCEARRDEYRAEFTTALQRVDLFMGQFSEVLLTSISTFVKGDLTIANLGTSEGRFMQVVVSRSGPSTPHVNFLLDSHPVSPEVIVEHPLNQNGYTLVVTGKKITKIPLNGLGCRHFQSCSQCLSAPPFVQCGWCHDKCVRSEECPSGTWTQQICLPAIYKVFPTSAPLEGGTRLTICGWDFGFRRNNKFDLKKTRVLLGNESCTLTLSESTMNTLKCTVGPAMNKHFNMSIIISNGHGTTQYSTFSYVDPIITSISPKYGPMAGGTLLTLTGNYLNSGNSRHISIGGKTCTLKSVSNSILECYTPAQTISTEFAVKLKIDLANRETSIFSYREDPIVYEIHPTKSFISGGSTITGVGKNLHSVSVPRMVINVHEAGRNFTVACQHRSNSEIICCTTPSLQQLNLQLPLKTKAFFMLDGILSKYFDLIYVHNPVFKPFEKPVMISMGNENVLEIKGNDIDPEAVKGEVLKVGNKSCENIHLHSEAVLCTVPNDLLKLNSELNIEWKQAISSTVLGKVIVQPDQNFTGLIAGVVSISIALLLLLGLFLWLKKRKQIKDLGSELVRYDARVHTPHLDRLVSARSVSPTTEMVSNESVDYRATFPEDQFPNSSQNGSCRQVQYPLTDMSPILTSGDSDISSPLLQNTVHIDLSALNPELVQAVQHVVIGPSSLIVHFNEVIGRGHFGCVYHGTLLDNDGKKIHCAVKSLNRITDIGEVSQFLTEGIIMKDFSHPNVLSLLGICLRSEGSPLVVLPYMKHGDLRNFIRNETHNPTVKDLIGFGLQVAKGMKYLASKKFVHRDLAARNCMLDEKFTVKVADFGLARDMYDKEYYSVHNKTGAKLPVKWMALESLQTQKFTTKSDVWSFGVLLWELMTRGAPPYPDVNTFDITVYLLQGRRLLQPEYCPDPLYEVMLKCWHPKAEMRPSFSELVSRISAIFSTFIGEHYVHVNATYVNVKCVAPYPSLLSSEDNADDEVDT

[4] = biological target: monkey EGFR on CHO-S-fasEGFR cells (monkey (crab-eating macaque; Macaca fascicularis)) (UniProt P55245); test: flow cytometry on CHO-S-fasEGFR cells (evaluated as No binding)
[5] = biological target: human MET on hMET-NIH3T3 cells (human) (UniProt P08581); test: flow cytometry on hMET-NIH3T3 cells (evaluated as No binding)
human MET on hMET-NIH3T3 cells (human), sequence (P08581 25-1390 limits assumed): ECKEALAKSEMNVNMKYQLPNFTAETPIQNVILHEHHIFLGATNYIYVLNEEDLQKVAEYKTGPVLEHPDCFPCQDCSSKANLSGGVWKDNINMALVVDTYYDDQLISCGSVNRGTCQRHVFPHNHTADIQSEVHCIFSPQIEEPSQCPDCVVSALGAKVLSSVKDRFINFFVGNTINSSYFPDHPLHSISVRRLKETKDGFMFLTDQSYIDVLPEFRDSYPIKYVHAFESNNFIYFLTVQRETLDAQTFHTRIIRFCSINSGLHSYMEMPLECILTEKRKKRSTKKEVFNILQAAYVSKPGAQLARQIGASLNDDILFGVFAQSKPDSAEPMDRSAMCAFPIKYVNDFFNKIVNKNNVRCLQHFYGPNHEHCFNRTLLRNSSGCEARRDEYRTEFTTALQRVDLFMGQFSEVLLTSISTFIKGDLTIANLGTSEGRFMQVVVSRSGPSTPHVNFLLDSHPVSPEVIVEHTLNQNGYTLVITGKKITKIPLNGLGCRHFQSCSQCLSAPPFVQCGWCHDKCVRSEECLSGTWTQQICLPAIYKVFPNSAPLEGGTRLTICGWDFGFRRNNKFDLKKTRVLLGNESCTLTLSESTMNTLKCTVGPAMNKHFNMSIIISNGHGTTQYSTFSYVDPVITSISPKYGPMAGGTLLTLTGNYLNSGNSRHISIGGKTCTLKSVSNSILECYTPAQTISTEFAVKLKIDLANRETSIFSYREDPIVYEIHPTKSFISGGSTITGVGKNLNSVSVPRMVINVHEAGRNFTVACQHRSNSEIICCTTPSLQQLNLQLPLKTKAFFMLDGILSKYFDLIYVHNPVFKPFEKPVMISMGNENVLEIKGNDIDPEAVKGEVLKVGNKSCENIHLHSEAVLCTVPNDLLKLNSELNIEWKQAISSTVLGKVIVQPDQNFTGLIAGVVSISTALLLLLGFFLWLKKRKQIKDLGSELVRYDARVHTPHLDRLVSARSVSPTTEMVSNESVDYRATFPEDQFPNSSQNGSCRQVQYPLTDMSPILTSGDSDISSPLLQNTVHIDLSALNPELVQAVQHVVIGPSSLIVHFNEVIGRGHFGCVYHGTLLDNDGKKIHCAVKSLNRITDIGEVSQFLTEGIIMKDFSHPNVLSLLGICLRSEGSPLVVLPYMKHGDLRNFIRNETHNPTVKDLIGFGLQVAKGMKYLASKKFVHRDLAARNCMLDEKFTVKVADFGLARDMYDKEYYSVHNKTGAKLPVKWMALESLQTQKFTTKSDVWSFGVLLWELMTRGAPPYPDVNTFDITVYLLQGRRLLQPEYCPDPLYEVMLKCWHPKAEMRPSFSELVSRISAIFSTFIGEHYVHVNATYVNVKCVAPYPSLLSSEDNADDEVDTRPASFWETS

[6] = biological target: monkey EGFR on CHO-S-fasEGFR cells (monkey (crab-eating macaque; Macaca fascicularis)) (UniProt P55245); test: flow cytometry on CHO-S-fasEGFR cells (evaluated as No binding); remark: listed apart in the source
[7] = biological target: monkey MET on fasMET-NIH3T3 cells (monkey (Macaca fascicularis)); test: flow cytometry on fasMET-NIH3T3 cells (evaluated as No binding); remark: listed apart in the source
[8] = biological target: human EGFR on CHO-S-hEGFR cells (human) (UniProt P00533); test: flow cytometry on CHO-S-hEGFR cells (evaluated as No binding)
[9] = biological target: dog MET on dMET-NIH3T3 cells (dog (Canis lupus, printed 'Cans lupus')) (UniProt Q75ZY9); test: flow cytometry on dMET-NIH3T3 cells (evaluated as No binding)

human MET on SNU-5 cells (human), sequence (P08581 25-1390): as the sequence (P08581 25-1390 limits assumed) above

Substance	Kd [1] [nM]	koff [1] [s⁻¹]	kon [1] [M⁻¹ s⁻¹]	Percentage of Positive Cells [2] [%]	Percentage of Positive Cells [3] [%]	Percentage of Positive Cells [4] [%]	Percentage of Positive Cells [5] [%]	Percentage of Positive Cells [6] [%]	Percentage of Positive Cells [7] [%]	Percentage of Positive Cells [8] [%]	Percentage of Positive Cells [9] [%]
Telisotuzumab analog (antibody)	1.5	9.41e-05	62600								
NC				2.5	1.29	0.65	1.01	0.2	0.8	0	0.29
